In publication PMC2901514 (The Febs Journal, 2010):

Biological target: the molecule itself
Test: SEC

B1: CMP-Neu5Ac synthetase (CNS) from Neisseria meningitidis, K142A mutant (enzyme)
chain: MEKQNIAVILARQNSKGLPLKNLRKMNGISLLGHTINAAISSKCFDRIIVSTDGGLIAEEAKNFGVEVVLRPAELASDTASSISGVIHALETIGSNSGTVTLLQPTSPLRTGAHIREAFSLFDEKIKGSVVSACPMEHHPLATLLQINNGEYAPMRHLSDLEQPRQQLPQAFRPNGAIYINDTASLIANNCFFIAPTKLYIMSHQDSIDIDTELDLQQAENILNHKES
stoichiometry N: 2
